“And” between values parts separate entries of the source, which are not always exact repeats. Identical values can stand only once. Like-named read-outs stand apart in the source and are kept apart here. Starred links: 1 amine or outer side, 2 acyl side, 3 side chain; linkers in the order of their positions; H or OH if unused. Non-standard residues stand in square brackets, D forms with d. Residues, ends and D or L forms follow the SMILES beside them. ξ: configuration not given here. *: point of attachment. GluureaLys(ε-3-ClBenzyl) = O=C(O)CC[C@H](NC(=O)N[C@@H](CCCCN(Cc1cccc(Cl)c1)*)C(=O)O)C(=O)O; Dolaproine = CO[C@@H]([C@@H]1CCCN1)[C@@H](C)C(=O)O; Dil = CC[C@H](C)[C@H](NC)[C@@H](CC(=O)O)OC; X1 = O=C(CCCc1cn(CCCN[*:1])nn1)[*:2]; PABC = O=C(OCc1ccc(N[*:1])cc1)[*:2]; X2 = C[C@@H](N*)[C@@H](O)c1ccccc1; Cit = NC(=O)NCCC[C@H](N)C(=O)O; Suc = O=C(CCC(=O)[*:2])[*:1]; NMeV = CN[C@H](C(=O)O)C(C)C; ξV = CC(C)C(N)C(=O)O; Ahx = NCCCCCC(=O)O
What was measured:
[1] = Pharmacokinetics in plasma of rats after a single injection; format: in vivo
Experimental: The pharmacokinetics study for the Conjugate (I) product in plasma of rabbits and rats after a single injection.
The leporids and rodents are the standard targets for preclinical studies of potential drug products as well as determining the pharmacokinetic parameters. The rabbits and rats are recommended as test systems to study pharmacokinetic properties of pharmaceutical products by the regulatory documents (FIG. 7, FIG. 8).
This study was performed on healthy awake white outbred mature male rats aged about 3 months with body weight of 190-210 g. […] The pharmacokinetic data, determined from this number of test animals, are sufficient to obtain the primary quantitative characteristics of test product distribution and elimination and the calculation of descriptive statistics parameters.
• 1. Conjugate (1) • 2. Solubilizer Pluronic F127—in the amount, five-fold greater than the conjugate amount by weight. • 3, Diluent—Haemodes infusion solution. • Dimethyl sulfoxide—in the amount of 5% of the prepared volume. • Rabbit experiment (see Tables 5, 6), • Rat experiment (see Tables 7, 8).

[2] = Body weight of mice in lymphoid leukosis P388 model; format: in vivo
Experimental: Lymphoid Leukosis P388 (male mice BDF1)—observation was held for 30 days since the first product administration (the product administration was started 24 hours after revaccination) and it was administered 3 times intraperitoneally in a day.
• 1. Group 1—tumor growth control (TGC) • 2. Group 2—placebo (diluent) • 3. Group 3—intraperitoneal Conjugate (I) administration in a dose of 0.5 mg/kg 3 times; • 4. Group 4—intraperitoneal Conjugate (I) administration in a dose of 1.0 mg/kg 3 times:
Experimental animals of control group (TGC) were administered with 0.9% saline, the placebo group was injected with the diluent (DMSO+Haemodes) of similar volume. The antineoplastic activity was determined according to mice lifespan.

[3] = male, white outbred, rat, plasma, rats N=6, read-out: Concentration in blood plasma, Geometr. mean
[4] = male, white outbred, rat, plasma, rats N=6, read-out: Concentration in blood plasma, Mean value
[5] = male, white outbred, rat, plasma, rats N=6, read-out: Concentration in blood plasma, Median
[6] = male, white outbred, rat, plasma, rats, read-out: Concentration in blood plasma (individual animals)

**Q.** Which level at 1 h ([1]; male, white outbred, rat, plasma, rats N=6, 1.00 hour, read-out: Concentration in blood plasma, Median) does the source give for `CC[C@H](C)[C@@H]([C@@H](CC(=O)N1CCC[C@H]1[C@H](OC)[C@@H](C)C(=O)N[C@H](C)[C@@H](O)c1ccccc1)OC)N(C)C(=O)[C@@H](NC(=O)[C@H](C(C)C)N(C)C(=O)OCc1ccc(NC(=O)[C@H](CCCNC(N)=O)NC(=O)C(NC(=O)CCCc2cn(CCCNC(=O)[C@H](Cc3ccc(O)cc3)NC(=O)[C@H](Cc3ccccc3)NC(=O)CCC(=O)NCCCCCC(=O)N(CCCC[C@H](NC(=O)N[C@@H](CCC(=O)O)C(=O)O)C(=O)O)Cc3cccc(Cl)c3)nn2)C(C)C)cc1)C(C)C` (some centres unmarked) [Conjugate (I)] ({GluureaLys(ε-3-ClBenzyl)-Ahx-Suc}-FY[X1][ξV][Cit][PABC][NMeV]V[Dil][Dolaproine]-X2) here?
**A.** 12500 ng/mL

**Q.** And the level at 1.5 h ([1]; male, white outbred, rat, plasma, rats N=6, 1.50 hour, read-out: Concentration in blood plasma, Geometr. mean)?
**A.** 10700 ng/mL

**Q.** What about the level at 1.5 h ([1]; male, white outbred, rat, plasma, rats N=6, 1.50 hour, read-out: Concentration in blood plasma, Mean value) of the same compound?
**A.** 11600 ng/mL

**Q.** What about the level at 1.5 h ([1]; male, white outbred, rat, plasma, rats N=6, 1.50 hour, read-out: Concentration in blood plasma, Median) of the same compound?
**A.** 10700 ng/mL

**Q.** And the level at 2 h [1, 3]?
**A.** 10900 ng/mL

**Q.** What about the level at 2 h [1, 4] of the same compound?
**A.** 11500 ng/mL

**Q.** And the level at 2 h [1, 5]?
**A.** 10500 ng/mL

**Q.** And the level at 3 h [1, 3]?
**A.** 7480 ng/mL

**Q.** And the level at 3 h [1, 4]?
**A.** 7680 ng/mL

**Q.** And the level at 3 h [1, 5]?
**A.** 7470 ng/mL

**Q.** What about the level at 4 h ([1]; male, white outbred, rat, plasma, rats N=6, 4.00 hour, read-out: Concentration in blood plasma, Geometr. mean) of the same compound?
**A.** 5730 ng/mL

**Q.** And the level at 4 h ([1]; male, white outbred, rat, plasma, rats N=6, 4.00 hour, read-out: Concentration in blood plasma, Mean value)?
**A.** 5860 ng/mL

**Q.** What about the level at 4 h ([1]; male, white outbred, rat, plasma, rats N=6, 4.00 hour, read-out: Concentration in blood plasma, Median) of the same compound?
**A.** 5840 ng/mL

**Q.** What about the level at 6 h ([1]; male, white outbred, rat, plasma, rats N=6, 6.00 hour, read-out: Concentration in blood plasma, Geometr. mean) of the same compound?
**A.** 4390 ng/mL

**Q.** What about the level at 6 h ([1]; male, white outbred, rat, plasma, rats N=6, 6.00 hour, read-out: Concentration in blood plasma, Mean value) of the same compound?
**A.** 4500 ng/mL

**Q.** And the level at 6 h ([1]; male, white outbred, rat, plasma, rats N=6, 6.00 hour, read-out: Concentration in blood plasma, Median)?
**A.** 4240 ng/mL

**Q.** What about the level at 8 h [1, 3] of the same compound?
**A.** 3260 ng/mL

**Q.** And the level at 8 h [1, 4]?
**A.** 3350 ng/mL

**Q.** What about the level at 8 h [1, 5] of the same compound?
**A.** 3190 ng/mL

**Q.** And the level at 10 h [1, 3]?
**A.** 2300 ng/mL

**Q.** What about the level at 10 h [1, 4] of the same compound?
**A.** 2370 ng/mL

**Q.** What about the level at 10 h [1, 5] of the same compound?
**A.** 2090 ng/mL

**Q.** What about the level at 12 h [1, 3] of the same compound?
**A.** 1760 ng/mL

**Q.** And the level at 12 h [1, 4]?
**A.** 1820 ng/mL

**Q.** What about the level at 12 h [1, 5] of the same compound?
**A.** 1620 ng/mL

**Q.** What about the level at 8 h [1, 6] of the same compound?
**A.** 2620 ng/mL

**Q.** What about the level at 10 h [1, 6] of the same compound?
**A.** 2000 ng/mL

**Q.** What about the “Concentration in blood plasma (individual animals)” value (shortened to “Concentration in blood plasma”) ([1]; rats, 1.50 hour) of the same compound?
**A.** 8007 ng/mL

**Q.** What about the “Concentration in blood plasma” value ([1]; rats, 4.00 hour) of the same compound?
**A.** 5834 ng/mL and 5880 ng/mL

**Q.** What about the “Concentration in blood plasma” value ([1]; rats, 6.00 hour) of the same compound?
**A.** 4247 ng/mL

**Q.** And the AUC0-t ([1]; rats, individual animals)?
**A.** 60334 ng·h/mL and 45653 ng·h/mL and 95993 ng·h/mL and 110564 ng·h/mL and 83377 ng·h/mL and 57819 ng·h/mL

**Q.** And the “AUC0-∞” value ([1]; rats, individual animals)?
**A.** 69475 ng·h/mL and 54945 ng·h/mL and 115670 ng·h/mL and 121598 ng·h/mL and 96420 ng·h/mL and 69132 ng·h/mL

**Q.** And the C0 ([1]; rats, individual animals)?
**A.** 14307 ng/mL and 5351 ng/mL and 25202 ng/mL and 96531 ng/mL and 27501 ng/mL and 15195 ng/mL

**Q.** And the T1/2 ([1]; rats, individual animals)?
**A.** 5.10 h and 5.00 h and 4.49 h and 4.13 h and 5.14 h

**Q.** What about the Vd ([1]; rats, individual animals) of the same compound?
**A.** 0.12816 L/kg and 0.20101 L/kg and 0.09361 L/kg and 0.07983 L/kg and 0.09261 L/kg and 0.16076 L/kg

**Q.** What about the “Body weight of mice” value ([2]; 0.5 mg/kg, day 0, in g (unit assumed)) of the same compound?
**A.** 19.9 ± 0.36

**Q.** What about the “Body weight of mice” value ([2]; 0.5 mg/kg, day 2, in g (unit assumed)) of the same compound?
**A.** 19.2 ± 0.28

**Q.** What about the “Body weight of mice” value ([2]; 0.5 mg/kg, day 4, in g (unit assumed)) of the same compound?
**A.** 19.2 ± 0.32

**Q.** And the “Body weight of mice” value ([2]; 1.0 mg/kg, day 0, in g (unit assumed))?
**A.** 19.7 ± 0.36

**Q.** And the “Body weight of mice” value ([2]; 1.0 mg/kg, day 2, in g (unit assumed))?
**A.** 19.7 ± 0.48

**Q.** What about the “Body weight of mice” value ([2]; 1.0 mg/kg, day 4, in g (unit assumed)) of the same compound?
**A.** 19.7 ± 0.42

Reference: patent US12454527B2, “Conjugate monomethyl auristatin E to obtain a composition for treatment of prostate cancer” (priority 2019, dated 2025)
